# Test results: patent US20220259294A1
# B1: TRL295 (antibody, V domains shown)
# VH: QVQLVESGGGLVQPGGSLRLSCAASGFPFSSYAMSWVRQAPGKGLEWVSAISGNGADSYYADSVKGRFTTSRDKSKNTVYLQMNRLRAEDTAVYYCAKDMRRYHYDSSGLHFWGQGTLVTVSS
# VL: DIELTQAPSVSVYPGQTARITCSGDALPKQYAYWYQQKPGQAPVVVIYKDSERPSGISERFSGSSSGTTVTLTISGVQAGDEADYYCQSVDTSVSYYVVFGGGTKLTVL
# Experiments:
# [1] = molecular target: IHF peptide of H. influenzae (Haemophilus influenzae); assay: Kd at pH 4.5 (Octet biosensor per Example 1)
# [2] = molecular target: IHF peptide of H. influenzae (Haemophilus influenzae); assay: Kd at pH 5.5 (Octet biosensor per Example 1)
# [3] = molecular target: IHF peptide of H. influenzae (Haemophilus influenzae); assay: Kd at pH 6.5 (Octet biosensor per Example 1)
# [4] = molecular target: IHF peptide of H. influenzae (Haemophilus influenzae); assay: Kd at pH 7.5 (Octet biosensor per Example 1)
binder,measurement,setting,value
B1,Kd,[1],3.7 nM
same,Kd,[2],2.8 nM
same,Kd,[3],2.8 nM
same,Kd,[4],4.2 nM
